Data on one molecule can be found in publication PMC11669160, “Engineering an αCD206-synNotch Receptor: Insights into the Development of Novel Synthetic Receptors” (ACS Synthetic Biology, 2024).

The assay concerns the target T1, mouse CD206 extracellular domain fused to a myc tag and the PDGFRβ transmembrane domain, displayed on MetBo2 … (Mus musculus (cDNA of IL-4 treated …)).
T1 construct: transmembrane domain of the human platelet-derived growth factor receptor (PDGFRβ); the methods name only myc; also called CD206 ECD; CD206 ECD construct; source: MetBo2 cells, transiently transfected (CMV promoter), on cells
T1 chain: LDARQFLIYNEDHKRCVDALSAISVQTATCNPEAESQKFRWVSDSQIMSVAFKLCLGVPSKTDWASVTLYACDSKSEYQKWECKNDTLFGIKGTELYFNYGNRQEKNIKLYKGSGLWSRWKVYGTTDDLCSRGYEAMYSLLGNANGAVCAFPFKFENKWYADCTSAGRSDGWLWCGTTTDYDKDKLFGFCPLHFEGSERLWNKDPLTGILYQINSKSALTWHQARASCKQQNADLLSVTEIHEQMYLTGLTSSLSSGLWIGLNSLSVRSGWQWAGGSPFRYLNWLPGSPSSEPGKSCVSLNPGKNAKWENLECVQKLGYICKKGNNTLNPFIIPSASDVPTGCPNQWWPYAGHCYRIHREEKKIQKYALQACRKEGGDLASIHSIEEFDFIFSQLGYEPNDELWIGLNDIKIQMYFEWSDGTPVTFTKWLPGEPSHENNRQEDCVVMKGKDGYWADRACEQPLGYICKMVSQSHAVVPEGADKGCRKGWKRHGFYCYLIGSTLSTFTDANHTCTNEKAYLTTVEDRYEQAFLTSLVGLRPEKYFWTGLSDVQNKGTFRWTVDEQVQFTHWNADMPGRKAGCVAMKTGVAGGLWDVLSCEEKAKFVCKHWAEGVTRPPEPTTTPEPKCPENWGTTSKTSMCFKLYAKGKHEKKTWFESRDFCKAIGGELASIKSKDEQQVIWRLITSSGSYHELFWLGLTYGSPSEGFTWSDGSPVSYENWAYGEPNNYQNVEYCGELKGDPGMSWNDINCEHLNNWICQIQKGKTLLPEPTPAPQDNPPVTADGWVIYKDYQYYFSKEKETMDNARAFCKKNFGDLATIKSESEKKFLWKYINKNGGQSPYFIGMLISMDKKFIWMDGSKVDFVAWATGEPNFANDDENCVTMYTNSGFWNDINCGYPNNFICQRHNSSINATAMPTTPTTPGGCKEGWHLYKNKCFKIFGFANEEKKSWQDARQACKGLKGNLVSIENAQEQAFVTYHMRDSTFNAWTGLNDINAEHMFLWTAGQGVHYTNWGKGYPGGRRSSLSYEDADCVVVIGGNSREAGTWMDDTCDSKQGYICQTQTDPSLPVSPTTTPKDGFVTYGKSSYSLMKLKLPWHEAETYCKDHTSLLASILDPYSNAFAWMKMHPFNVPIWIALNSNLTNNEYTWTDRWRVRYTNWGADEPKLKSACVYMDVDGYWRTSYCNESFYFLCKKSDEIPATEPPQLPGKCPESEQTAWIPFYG
Briefly: immunostaining of cells or tissue; supernatant of HEK293FT cells with αCD206-mNeonGreen chromobody put on MetBo2 cells transiently expressing the CD206 ECD construct; 4 °C overnight in the dark; fluorescence microscopy (methods: fixed cells; legend: live cells). The note with it: partners not purified.

B1: αCD206-mNeonGreen chromobody (αCD206 VHH fused to mNeonGreen) (VHH)
VHH: QVQLQESGGGLVQPGGSLRLSCAASGNIFSINAIGWYRQAPGKQRELVATITLSGSTNYADSVKGRFSISRDNAKNTVYLQMNSLKPEDTAVYYCNANTYSDSDVYGYWGQGTQVTVSS
notes: also called αCD206 chromobodies; αCD206 nanobody; source: HEK293FT, transiently transfected; cell-free culture supernatant used unpurified
B1: the binding result is “binds”.
